Tested on: Escherichia coli TOP10
Test: shrunken log2 fold change of peptide-encoding DNA abundance (4.5 h post-induction vs induction); higher = less antimicrobial activity (less host growth inhibition)
Conditions: time post-induction: 4.5 h; library: site-saturation at positions 5, 18, 19, 20
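Further: peptides expressed intracellularly from a pBAD plasmid library in pooled LB shake-flask culture, induced with 0.3% L-arabinose, DNA abundance read by NGS, three biological replicates, DESeq2 with apeglm shrinkage.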

RRIRCRPPRLPRPRPRPCPMPRP
shrunken log2 fold change: -8.18e-06

RRIRKRPPRLPRPRPRPMPVPRP
shrunken log2 fold change: -0.00341

RRIRTRPPRLPRPRPRPDVIPRP
shrunken log2 fold change: -0.0157

RRIRERPPRLPRPRPRPFVTPRP
shrunken log2 fold change: -0.865

RRIRLRPPRLPRPRPRPNKNPRP
shrunken log2 fold change: -0.366

RRIRDRPPRLPRPRPRPCMKPRP
shrunken log2 fold change: -0.0664

RRIRLRPPRLPRPRPRPYPPPRP
shrunken log2 fold change: -0.866

RRIRIRPPRLPRPRPRPNEVPRP
shrunken log2 fold change: -0.346

RRIRMRPPRLPRPRPRPLWAPRP
shrunken log2 fold change: 0.509

RRIRARPPRLPRPRPRPLEFPRP
shrunken log2 fold change: 0.231

RRIRDRPPRLPRPRPRPDEYPRP
shrunken log2 fold change: 0.436

RRIRSRPPRLPRPRPRPMYIPRP
shrunken log2 fold change: -0.354

RRIRDRPPRLPRPRPRPVRHPRP
shrunken log2 fold change: 0.646

RRIRMRPPRLPRPRPRPHRFPRP
shrunken log2 fold change: -0.0727

RRIRERPPRLPRPRPRPRMIPRP
shrunken log2 fold change: -0.0503

RRIRFRPPRLPRPRPRPRGNPRP
shrunken log2 fold change: -0.0828

RRIRNRPPRLPRPRPRPDTQPRP
shrunken log2 fold change: -0.149

RRIRFRPPRLPRPRPRPTYEPRP
shrunken log2 fold change: -0.3

RRIRARPPRLPRPRPRPMIFPRP
shrunken log2 fold change: 0.292

RRIRLRPPRLPRPRPRPGDRPRP
shrunken log2 fold change: -0.0244

RRIRTRPPRLPRPRPRPHVMPRP
shrunken log2 fold change: -0.0914

RRIRNRPPRLPRPRPRPDQDPRP
shrunken log2 fold change: -0.00104

RRIRPRPPRLPRPRPRPWILPRP
shrunken log2 fold change: -0.451

RRIRIRPPRLPRPRPRPDKPPRP
shrunken log2 fold change: -0.0335

RRIRSRPPRLPRPRPRPYKRPRP
shrunken log2 fold change: -0.618

RRIRDRPPRLPRPRPRPLSKPRP
shrunken log2 fold change: 0.132

RRIRVRPPRLPRPRPRPIERPRP
shrunken log2 fold change: 0.0557

RRIRWRPPRLPRPRPRPTQTPRP
shrunken log2 fold change: 0.551

RRIRQRPPRLPRPRPRPRMLPRP
shrunken log2 fold change: -0.0148

RRIRERPPRLPRPRPRPINSPRP
shrunken log2 fold change: -0.157

RRIRVRPPRLPRPRPRPSKQPRP
shrunken log2 fold change: -0.201

RRIRQRPPRLPRPRPRPAEQPRP
shrunken log2 fold change: -0.000243

RRIRCRPPRLPRPRPRPAMHPRP
shrunken log2 fold change: 0.354

RRIRHRPPRLPRPRPRPPGWPRP
shrunken log2 fold change: 0.424

RRIRKRPPRLPRPRPRPGPKPRP
shrunken log2 fold change: 1.15

RRIRWRPPRLPRPRPRPKLLPRP
shrunken log2 fold change: 0.336

RRIRYRPPRLPRPRPRPKWDPRP
shrunken log2 fold change: -0.46

RRIRHRPPRLPRPRPRPCDLPRP
shrunken log2 fold change: -0.502

RRIRLRPPRLPRPRPRPFRIPRP
shrunken log2 fold change: 0.0742

RRIRNRPPRLPRPRPRPMKWPRP
shrunken log2 fold change: 0.0456

RRIRVRPPRLPRPRPRPAGIPRP
shrunken log2 fold change: 0.165

RRIRWRPPRLPRPRPRPEGRPRP
shrunken log2 fold change: 0.65

RRIRGRPPRLPRPRPRPRRIPRP
shrunken log2 fold change: 0.451

RRIRTRPPRLPRPRPRPTERPRP
shrunken log2 fold change: 0.36

RRIRSRPPRLPRPRPRPAHPPRP
shrunken log2 fold change: 0.427

RRIRFRPPRLPRPRPRPVPIPRP
shrunken log2 fold change: -0.0344

RRIRHRPPRLPRPRPRPGYGPRP
shrunken log2 fold change: -0.318

RRIRLRPPRLPRPRPRPFTPPRP
shrunken log2 fold change: -0.265

RRIRRRPPRLPRPRPRPPLVPRP
shrunken log2 fold change: 1.23

RRIRSRPPRLPRPRPRPLYPPRP
shrunken log2 fold change: -0.813

RRIRYRPPRLPRPRPRPHHYPRP
shrunken log2 fold change: -1.79

RRIRPRPPRLPRPRPRPQAFPRP
shrunken log2 fold change: -0.00213

RRIRQRPPRLPRPRPRPTFPPRP
shrunken log2 fold change: -0.0691

RRIRPRPPRLPRPRPRPTAFPRP
shrunken log2 fold change: 0.238

RRIRPRPPRLPRPRPRPKVHPRP
shrunken log2 fold change: -0.132

RRIRGRPPRLPRPRPRPNQRPRP
shrunken log2 fold change: 0.27

RRIRNRPPRLPRPRPRPVVEPRP
shrunken log2 fold change: -0.00885

RRIRQRPPRLPRPRPRPVWKPRP
shrunken log2 fold change: 0.121

RRIRFRPPRLPRPRPRPNRVPRP
shrunken log2 fold change: -0.0261

RRIRARPPRLPRPRPRPKLSPRP
shrunken log2 fold change: 0.138

RRIRHRPPRLPRPRPRPQDGPRP
shrunken log2 fold change: -0.0342

RRIRMRPPRLPRPRPRPLQAPRP
shrunken log2 fold change: 2.15

RRIRMRPPRLPRPRPRPVRIPRP
shrunken log2 fold change: 0.238

RRIRIRPPRLPRPRPRPSRWPRP
shrunken log2 fold change: 0.324

RRIRHRPPRLPRPRPRPYQLPRP
shrunken log2 fold change: -0.0135

RRIRTRPPRLPRPRPRPVLDPRP
shrunken log2 fold change: -0.0579

RRIRYRPPRLPRPRPRPVHKPRP
shrunken log2 fold change: -0.564

RRIRHRPPRLPRPRPRPWWEPRP
shrunken log2 fold change: -0.015

RRIRWRPPRLPRPRPRPQYKPRP
shrunken log2 fold change: -0.696

RRIRNRPPRLPRPRPRPHFTPRP
shrunken log2 fold change: -0.0512

RRIRQRPPRLPRPRPRPDLIPRP
shrunken log2 fold change: 0.0281

RRIRGRPPRLPRPRPRPIESPRP
shrunken log2 fold change: 0.108

RRIRERPPRLPRPRPRPAYPPRP
shrunken log2 fold change: -0.403

RRIRARPPRLPRPRPRPETLPRP
shrunken log2 fold change: 1.15

RRIRIRPPRLPRPRPRPGCPPRP
shrunken log2 fold change: -0.304

RRIRWRPPRLPRPRPRPEKNPRP
shrunken log2 fold change: 0.686

RRIRLRPPRLPRPRPRPRAVPRP
shrunken log2 fold change: 0.821

RRIRYRPPRLPRPRPRPQQHPRP
shrunken log2 fold change: -0.278

RRIRRRPPRLPRPRPRPVMFPRP
shrunken log2 fold change: 0.155

RRIRCRPPRLPRPRPRPLKPPRP
shrunken log2 fold change: -0.225

RRIRFRPPRLPRPRPRPHEKPRP
shrunken log2 fold change: -0.0136

RRIRRRPPRLPRPRPRPPIEPRP
shrunken log2 fold change: 0.339

RRIRFRPPRLPRPRPRPGGAPRP
shrunken log2 fold change: 0.263

RRIRRRPPRLPRPRPRPFCGPRP
shrunken log2 fold change: 0.143

RRIRSRPPRLPRPRPRPTMKPRP
shrunken log2 fold change: -0.128

RRIRTRPPRLPRPRPRPQFIPRP
shrunken log2 fold change: -0.07

RRIRGRPPRLPRPRPRPLYAPRP
shrunken log2 fold change: 0.64

RRIRMRPPRLPRPRPRPVPKPRP
shrunken log2 fold change: 1.11

RRIRVRPPRLPRPRPRPCTAPRP
shrunken log2 fold change: 0.172

RRIRFRPPRLPRPRPRPWVCPRP
shrunken log2 fold change: 0.029

RRIRYRPPRLPRPRPRPVNKPRP
shrunken log2 fold change: -0.0557

RRIRIRPPRLPRPRPRPNKYPRP
shrunken log2 fold change: -0.932

RRIRQRPPRLPRPRPRPGNTPRP
shrunken log2 fold change: 0.0649

RRIRPRPPRLPRPRPRPSSCPRP
shrunken log2 fold change: 0.0133

RRIRCRPPRLPRPRPRPVFHPRP
shrunken log2 fold change: -0.262

RRIRLRPPRLPRPRPRPPDWPRP
shrunken log2 fold change: 0.427

RRIRYRPPRLPRPRPRPRNHPRP
shrunken log2 fold change: -0.336

RRIRCRPPRLPRPRPRPDEVPRP
shrunken log2 fold change: 0.00585

RRIRLRPPRLPRPRPRPKPAPRP
shrunken log2 fold change: 0.679

RRIRGRPPRLPRPRPRPCNAPRP
shrunken log2 fold change: 1.45

RRIRCRPPRLPRPRPRPRSCPRP
shrunken log2 fold change: -0.159

RRIRYRPPRLPRPRPRPIHSPRP
shrunken log2 fold change: -0.0447

RRIRRRPPRLPRPRPRPIRWPRP
shrunken log2 fold change: 0.0197

RRIRERPPRLPRPRPRPGVRPRP
shrunken log2 fold change: 0.125

RRIRDRPPRLPRPRPRPWWDPRP
shrunken log2 fold change: 0.083

RRIRVRPPRLPRPRPRPEMNPRP
shrunken log2 fold change: -0.16

RRIRRRPPRLPRPRPRPPSMPRP
shrunken log2 fold change: 0.426

RRIRLRPPRLPRPRPRPFSVPRP
shrunken log2 fold change: -0.323

RRIRTRPPRLPRPRPRPCRSPRP
shrunken log2 fold change: -0.0198

RRIRIRPPRLPRPRPRPCRSPRP
shrunken log2 fold change: -0.365

RRIRFRPPRLPRPRPRPYYHPRP
shrunken log2 fold change: -0.146

RRIRLRPPRLPRPRPRPWKHPRP
shrunken log2 fold change: -0.0177

RRIRSRPPRLPRPRPRPKDGPRP
shrunken log2 fold change: 0.307

RRIRKRPPRLPRPRPRPHNKPRP
shrunken log2 fold change: -0.0934

RRIRARPPRLPRPRPRPFDMPRP
shrunken log2 fold change: 0.0608

RRIRQRPPRLPRPRPRPQWLPRP
shrunken log2 fold change: 0.0957

RRIRWRPPRLPRPRPRPMWFPRP
shrunken log2 fold change: -0.487

RRIRCRPPRLPRPRPRPKNPPRP
shrunken log2 fold change: 1.17

RRIRIRPPRLPRPRPRPGKVPRP
shrunken log2 fold change: -0.621

RRIRWRPPRLPRPRPRPSTTPRP
shrunken log2 fold change: 0.221

RRIRSRPPRLPRPRPRPICWPRP
shrunken log2 fold change: 0.0446

RRIRSRPPRLPRPRPRPWGHPRP
shrunken log2 fold change: 0.109

RRIRYRPPRLPRPRPRPHWFPRP
shrunken log2 fold change: -0.402

RRIRCRPPRLPRPRPRPHEAPRP
shrunken log2 fold change: -0.65

RRIRPRPPRLPRPRPRPQATPRP
shrunken log2 fold change: -0.2

— the supplement of paper PMC9112550, “Optimization of the antimicrobial peptide Bac7 by deep mutational scanning” (BMC Biology, 2022)
